Assay results: the supplement of paper PMC9732359
± gives the uncertainty stated by the source.

Assay: protein stability index of a GFP-peptide fusion (yeast GPS) (PSI 1-4); higher = more stable; sorted into four equal gates, so the index is relative within each strain
Summary of the method: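 For each peptide, the protein stability index sums the read frequency in every gate after multiplying it by the gate number. Read frequencies came from plasmids that were PCR-amplified from each gate and Illumina-sequenced, with reads assigned to strains by barcodes. The gates were four equal bins of GFP/Cherry fluorescence ratio applied to mid-log yeast in leucine-free medium carrying a pooled library of tiled 17-residue yeast protein peptides fused downstream of GFP on a Cherry-expressing plasmid.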

Row | Sequence | protein stability index (pdr5∆) | protein stability index (san1∆) | protein stability index (ubr1∆) | protein stability index (doa10∆)
1 | KKRKAGRPRGRPKKVKL [SNF2] | 3.09 ± 0.12 | 2.96 ± 0.21 | 2.9 ± 0.11 | 
2 | TVNHSEKFPNDVKLLNP [RPP1] | 2.87 ± 0.034 | 3.08 ± 0.036 | 3 ± 0.036 | 2.79 ± 0.05
3 | SRKETSRTATWLKNKFA [BRR2] | 1.29 ± 0.041 | 1.67 ± 0.11 | 1.49 ± 0.063 | 1.37 ± 0.057
4 | NEKLECISLGSTKLSRP [ITC1] | 2.64 ± 0.052 | 2.44 ± 0.047 | 2.47 ± 0.057 | 2.25 ± 0.064
5 | TAETNNKVHETSSKSSS [YDL088C/ASM4] | 2.96 ± 0.045 | 2.84 ± 0.039 | 2.89 ± 0.032 | 2.86 ± 0.039
6 | ASFYSVNTEKKTIEVTA [RPN3] | 1.29 ± 0.11 |  | 1.65 ± 0.28 | 
7 | SLFELIVPIFQLISAVL [YJL039C/NUP192] | 1.75 ± 0.051 | 1.7 ± 0.097 | 1.85 ± 0.037 | 1.86 ± 0.068
8 | GKVVGDKWESYLNLLQE [RPB10] | 2.65 ± 0.086 | 2.49 ± 0.11 | 3.26 ± 0.055 | 3.24 ± 0.076
9 | VKKVQLGKKGVPYVVTH [RPS4A] | 2.07 ± 0.13 | 3.06 ± 0.064 | 2.04 ± 0.071 | 1.77 ± 0.098
10 | EKNEKEREIKRRKFDPS [UBP6] | 3.25 ± 0.051 | 3.09 ± 0.044 | 3.25 ± 0.057 | 3.3 ± 0.05
11 | RQKARTDAHTPLARNYI [RPR2] | 2.52 ± 0.058 | 2.78 ± 0.049 | 2.86 ± 0.042 | 2.63 ± 0.054
12 | DWEDEEKYEDEDEEKIL [DSN1] | 2.94 ± 0.16 | 3.26 ± 0.24 | 3.25 ± 0.15 | 3.28 ± 0.11
13 | EVQRILIELLTQMDGFD [RPT3] | 2.08 ± 0.081 | 1.41 ± 0.16 | 1.81 ± 0.069 | 1.36 ± 0.054
14 | MEVLGIEAGRAALYKEV [RPO21] | 2.9 ± 0.2 | 2.4 ± 0.16 | 2.76 ± 0.12 | 2.55 ± 0.14
15 | GGGAARRQAVDVSPLRR [RPS5] | 1.76 ± 0.056 | 2.15 ± 0.11 | 1.85 ± 0.093 | 2.28 ± 0.1
16 | THKVTDIYSHEYKVITS [YMR129W/POM152] | 1.97 ± 0.082 | 2.38 ± 0.089 | 2.13 ± 0.064 | 1.71 ± 0.065
17 | AKLNYKNLNPASSSPSS [ECM29] | 3.06 ± 0.08 | 2.79 ± 0.11 | 3.04 ± 0.051 | 3.25 ± 0.071
18 | AKTLIPSLNNKISDDEL [RPB4] | 3.1 ± 0.069 | 3.06 ± 0.06 | 3.19 ± 0.061 | 2.98 ± 0.069
19 | EKSRISERDSKDRYING [YMR129W/POM152] | 3.08 ± 0.062 | 3.04 ± 0.066 | 2.54 ± 0.05 | 3.01 ± 0.09
20 | CTNLTNRTLYELADLPK [GRR1] | 3.05 ± 0.048 | 2.92 ± 0.036 | 3.1 ± 0.046 | 2.93 ± 0.058
21 | AKITEIGSTSKRPIESG [YIL149C/MLP2] | 3.07 ± 0.1 | 3.14 ± 0.11 | 3.31 ± 0.059 | 3.23 ± 0.084
22 | RTNNVPMIKAEETPSKT [NUT1] | 2.86 ± 0.084 | 2.43 ± 0.097 | 2.66 ± 0.078 | 2.9 ± 0.1
23 | SAVKPRPLKLERGFACI [FAS1] | 2.36 ± 0.064 | 2.06 ± 0.082 | 2.42 ± 0.071 | 2.16 ± 0.092
24 | NIDETSDEVSRGIPRLS [SMC4] |  | 2.97 ± 0.22 |  | 3.06 ± 0.2
25 | NACAKYGRDDMENIKKS [ISW2] | 2.93 ± 0.12 | 3.08 ± 0.078 | 3.06 ± 0.086 | 2.91 ± 0.11
26 | WVQLVQIIVTDGKLEPS [YJL039C/NUP192] | 1.32 ± 0.085 | 1.19 ± 0.098 | 1.27 ± 0.07 | 1.27 ± 0.065

Row | Sequence | protein stability index (pdr5∆) | protein stability index (san1∆) | protein stability index (ubr1∆) | protein stability index (doa10∆)
27 | LDGELDFDDFLKLGLVE [RET1] | 3.08 ± 0.12 | 2.81 ± 0.13 | 2.56 ± 0.17 | 3.36 ± 0.16
28 | MVMAGSKGSFINIAQMS [RPO21] | 1.67 ± 0.049 | 1.25 ± 0.083 | 1.42 ± 0.05 | 1.43 ± 0.054
29 | KSHVLLATPVQFELLSR [BRR2] | 1.58 ± 0.052 | 2.02 ± 0.066 | 2.08 ± 0.049 | 2.31 ± 0.057
30 | DENTSGKISKPRFLNKQ [PRP28] | 3.4 ± 0.23 |  | 3.16 ± 0.15 | 
31 | KPGSTVMLLGTPDANLI [UBP6] | 3.58 ± 0.24 |  | 3.38 ± 0.12 | 
32 | ADEDDEDAKYVINLKQI [RPT1] | 2.66 ± 0.16 | 1.8 ± 0.2 | 2.61 ± 0.085 | 1.99 ± 0.13
33 | SDDYDNEGAASSNPQSA [SMC1] | 3.42 ± 0.13 | 2.65 ± 0.12 | 3.13 ± 0.051 | 2.91 ± 0.16
34 | DLYHFALNYENEAGRKL [SNF2] | 3.13 ± 0.098 | 3.26 ± 0.083 | 3.76 ± 0.26 | 2.94 ± 0.16
35 | MTPVIEKIAAGYMQKPV [PRP28] | 1.93 ± 0.11 | 1.83 ± 0.14 | 2.68 ± 0.075 | 2.16 ± 0.11
36 | IQIDEETENSESIASSN [MCD1] | 2.73 ± 0.072 | 2.5 ± 0.082 | 2.76 ± 0.051 | 2.4 ± 0.071
37 | DDSSSDNDSLTDLESLS [SIR4] | 3.28 ± 0.043 | 3.09 ± 0.044 | 2.95 ± 0.042 | 3.15 ± 0.058
38 | QTWSYLSLYSTDLENSS [ECM29] | 2.25 ± 0.052 | 2.66 ± 0.05 | 2.76 ± 0.049 | 2.41 ± 0.064
39 | ESLRGILHVRAQYCYKN [SRP72] | 2.36 ± 0.11 | 2.18 ± 0.22 | 2.13 ± 0.062 | 1.94 ± 0.1
40 | MSSTNGNAPATPSSDQN [SOH1] | 2.75 ± 0.1 | 3.2 ± 0.058 | 3.11 ± 0.1 | 3.17 ± 0.09
41 | HIQVNQAPKQRRRTYRA [RPL17A] | 2.34 ± 0.11 | 2.38 ± 0.2 | 3.28 ± 0.14 | 1.89 ± 0.12
42 | ICYNKKTEYVLNDLNHL [REC8] | 1.75 ± 0.091 | 1.68 ± 0.21 | 1.88 ± 0.19 | 1.8 ± 0.19
43 | EKIWFAISKENLCGDIS [SIR3] | 2.44 ± 0.078 | 2.27 ± 0.11 | 1.91 ± 0.078 | 2.39 ± 0.064
44 | KNNLLIPDLSIQNDIYL [RPN12] | 3.02 ± 0.038 | 2.98 ± 0.035 | 2.92 ± 0.047 | 2.93 ± 0.046
45 | TIFKSGEIDFIKNIGKS [YML103C/NUP188] | 2.37 ± 0.061 | 1.92 ± 0.12 | 2.51 ± 0.073 | 1.64 ± 0.069
46 | NPRRLEIKDGRSLFLRN [YMR153W/NUP53] | 2.9 ± 0.11 | 3.2 ± 0.087 | 3.22 ± 0.085 | 3.27 ± 0.1
47 | KTLIGLQGIVIWDSQKF [POP4] | 1.91 ± 0.051 | 2.17 ± 0.071 | 2.38 ± 0.044 | 1.7 ± 0.061
48 | LWLKKVMEEEEQDCKCI [POP8] | 2.7 ± 0.068 | 3.05 ± 0.078 | 2.99 ± 0.051 | 2.63 ± 0.077
49 | EEEKELTEEELKTRYVG [RPN11] | 3.44 ± 0.12 | 3.4 ± 0.067 | 3.5 ± 0.14 | 3.68 ± 0.2
50 | VLRTALVHDGLARGLRE [RPS12] | 2.79 ± 0.16 | 2.77 ± 0.096 | 3.25 ± 0.1 | 2.57 ± 0.17
51 | PYGSFHQQQLQQPHYIQ [DSN1] | 2.98 ± 0.052 | 2.92 ± 0.044 | 3.1 ± 0.048 | 2.76 ± 0.063
52 | EREEAEKKRAEQENMRK [MED2] |  | 2.75 ± 0.28 |  | 
